The text below walks through data of the DeepSol protein solubility set.

The data set in a line: soluble on expression in E. coli; label from the status in PepcDB or PDB records.
For the sequence “MGKKIITISREYGSGGRQVGLTVAKKLGMEFYDKELIDAAAKEIGFPTEMIADREQRLTNSLLYNFAMGTLYGIAYPREPKVSELPLTEQIYQAQKKAIEEAAKRGSCIFVGRCADYILKSRPDVLRVFIYADRDIRKRRAIEEYGEIEEYIDEFMYQTDKRRRIHYENYTNQKWGSRENYDLMLNSGDLGLDKCVELLCEAVK”, the “soluble on expression in E. coli” value was “not soluble”.

In the case of “MSHRPIAIFDFDGTLTRCDSLLPFLRQAQPVILFWLRLPFYLAMWMCYKLRLAPADRTKAAILSTVLKGKREVECRAMGQRFVPAIESILRPEALRCLEWHRSEGHRLVLLTASLLPCVEPWAEKTGFHTVIATLPEIKSGILTGRFEGNNCKGKEKIHRLDRALPHWRDSISYGYGDSPSDRPLLSLCTHSYYRRFPAL”, the “soluble on expression in E. coli” value is given as “not soluble”. As for “MGGLYVSNFYGIFYSSNSESSTTLVDFCKYNAEIVEQTIFLEFVEFSNESIIFLKNLYSKMVNNSNFNIKKKFFHRKNSVTVYSNFLNFSKNLVKKFGV”, the “soluble on expression in E. coli” value is recorded as “not soluble”. With “MTEKKIDFKKEEKKFYAPKRKPERIFVPEMNFLMVDGKGDPDGEEYQKAVQSLYAIAYTIKMSKMGETRLDGYSDFVVPPLEGFWWSEGKFDLKDRDAWLWTSILRQPDFVTEEVLEWAKEVARKKKPDVDTSRVKLVRFEEGECVQMMHVGPFSEEVHTVAEMHQFMETEGLRNDTGAIRKHHEIYLSDPRKANPEKMKTILRLPVS” the entry was “soluble”; with “MTVLIAGAGIAGLSLGLTLHQIGVPFRIYEATAVLRPMGVGINLQPNAVRELLDLGLEAELDRIGVRTRQLGFYSKLGKTIWEEPRGIWAGYAWPQYSVHRGALQMMLYEALIARAGADCVVTGARAAGFETGPESATLILSDGRRVEGRLLIAADGIHSALRAQMYPNEGEPIWNGRVLWRATTRAPAYFGGGAMAMIGHDDLRLVSYPISEPDGDGMVEMNWIAEKRFPLDAAWKKEDWNRAADIGDFLPDFADWRFDWIDVPALIQGAEVVYEYPMVDRDPLPRWTGGSVTLMGDAAHPTYPVGSNGASQAILDARIIGARLLEHGITPRALAAYEAEVRPVTTAVGQANRAGGGPDGVLQRVEDLCGGDFDDIDTVIPHAELAAHAARYKSIAGFSIEELNARPRTIAEGARIPALEHHHHHH”, “not soluble”. Turning to “PNFSEGSSSTESTVRVKHKIEKTTQKLSETVRPRDMFIHDDGAHYKVDDNALYEEIWSDLPHWDVKGIKDISDQYDKAGFKSWFYGIGGSEAKLDLQFSDTIPIDIFQTLFKWSNQSFEYSSFDHILIPFNETKANKKIYLVSYSKQLILEVTVESANYRNIMNDLKNRQSNMPAFSLFSIGSKKEFLLPNKPLTMDKKEFVTESIKTNTFKQALFSDPSIVREDSNYNNRNVLTDGISRLDVNLSQRQVQFQQRNLVQSTSYQTGELIKKSQKYLEDTGSWTDHYQFFNINDSQQLSFYIFMDQIPVINSTAKPFGATSAITVQWANDDILSYKRPNYSLGTNPIKTSETELMGGSEVKMLLSKQTAYDTDKIDQIFLAYQLVSTSTNDDPLVELEPVWAMKVNGKIVPITKDLLRKEGANSGVE”, the “soluble on expression in E. coli” value is “soluble”. As for “MAHHHHHHSLITTYKTITSSTQAEFKDKGSRFIAFAYPIRTLADVKKYLDPLKEEHHKARHWCYAYRLGVDGMQFRANDDGEPSGSAGRPILGQIDSVGITDVLVVVVRYFGGTLLGVPGLIHAYKEATAQALAVAEVVEKNIEKTVWLKCEYPFLNEAIRIAKQYQADILERDLQLDCRLTVSLSLVNYEACVAAWKNTRQIEVNTEKPFEEG”, the “soluble on expression in E. coli” value was “soluble”. In the case of “MSALNELLHDDAIDLNAHAETWQEAIAQAGALLEKTGAITSAYTESMISSVEEQGPYIVVAPGFAFAHARPSEAVKRTAIAWTRLDSPVEFHHSSNDPVTLVVALAAQDDQAHTAAMREIAQVLGSRRRDLDTVATVAELRGVLEASKRRKSRGVAGGATHVTAQDSVESKGKILTVCGNGLGTSLFLKNTLDQVLDTWGWGPFVSTEATDTISAKGRAKEADFLLTSEEIARTLGDVGVPVYVISNFTSEDEIDAALRELYDV”, the “soluble on expression in E. coli” value is listed as “not soluble”. As for “MGSDKIHHHHHHMETMFDTLLQLPLFQGLCHEDFTSILDKVKLHFIKHKAGETIIKSGNPCTQLCFLLKGEISIVTNAKENIYTVIEQIEAPYLIEPQSLFGMNTNYASSYVAHTEVHTVCISKAFVLSDLFRYDIFRLNYMNIVSNRAQNLYSRLWDEPTLDLKSKIIRFFLSHCEKPQGEKTFKVKMDDLARCLDDTRLNISKTLNELQDNGLIELHRKEILIPDAQKLL”, the “soluble on expression in E. coli” value is “soluble”. “EDKYTDKYDNINLDEILANKRLLVAYVNCVMERGKCSPEGKELKEHLQDAIENGCKKCTENQEKGAYRVIEHLIKNEIEIWRELTAKYDPTGNWRKKYEDRAKAAGIVIPEE”: the “soluble on expression in E. coli” value is listed as “soluble”. For “TDIVLWDKPGEKVLLLGNQAIVRGALEGNIGVYAAYPGTPSSEITDTMAMVAKKAGVYMEYSTNEKVAFETALSASWAGLRAMTAMKHVGLNVAMDSFMTVSYMGINGGLIVVVADDPSMWSSQNEQDTRAIAKFANIPVLEPSSVQEAKDMVKYAFEISEKYGQMVILRTTTRSSHMRGDVVLGELPQEIKEGKRKFGNFKKNPEKYVDIPAFQRPKHPWLLETIEKFREEFNTSPFNWIEGPEDAKVGIIAPGLSYAYVKEALAWLGIDNVKILKLGTPFPVPYGLLEKFFNGLERVLIVEELEPVVEEQVKVWAFDNNINIEIHGKDLVPRVYEMTTRRAVEAVAKFLGVETPINFQEIDEKYKKVQEMVPPRPPSLCPACPHRNTFFAIRKAATPRAIFPSDIGCYTLGVLPPLKTVDTTIAMGGSIGVAHGLSIALNGALGEEQRKTGKEKKIIVATIGDSTFFHTGLPALANAIYNRSNVLIVVMDNMVTAMTGDQPNPGTGETPHGPGKRILIEEVARAMGADFVAVVDPYDIKETYETIKKALEVEGVSVVVSRRACALYRIGQLRREGKQWPIYQVNEEKCTGCKICINAYGCPAIYWDAEK”, the “soluble on expression in E. coli” value was “not soluble”. As to “MGSDKIHHHHHHMNITIVGAGATGGYFGARLAASGLNVTFLVREKRAAQLREKGLVIKSVVEDLTLEAPQIAINAEDIPACDLVLLGLKNYQLAASLPQLKVLVNRGAKILPFLNGVEHFEILAKELGQENVLGGVCKIISTLDSEGTIHHTSKVHQIIFGELEPSGKEFCLRLEQAMAKANFKVKYTENILNEIWSKYAFITVFSGVTSAGDLTTDQICAHEATVKVYRRSLEEMKSLADAYGAALSEDFVEQNVEGLPKYAKGSTSSMHQDMRKGLLLEVESLQGAAIRLAGRKNMELPTIETLYGLIKPYEMGSIG”, the “soluble on expression in E. coli” value was “not soluble”.

Turning to “MSLSKNDHRITHNKSDKDNLDDDFSLFRDEVKGVKKLRQDTILHAPNRNPKQKEIRRTEREASDNDFYFSDEFMPHLTDEGPTRYARSDVSKYEVKRLRRGVYVPDVFLDMHGMTQQEAKRELGAMIAYCLKENVHCACVQHGIGKHILKQNVPLWLAQHPDVLAFHQAPLEFGGDGALLVLLSIPEKEGHHHHHH”, the “soluble on expression in E. coli” value was “soluble”. With “MELVHGISTHFIQSKKFKTNKITVRFTAPLSLDTIAGHMLSASMLETANQMYPTSQDLRRHLASLYGTDMSTNCFRRGQSHIIELTFTYVRDEFLSRKNVLTSQILELVKETLFSPVVVDNGFDPALFEIEKKQLLASLAADMDDSFYFAHKELDKLFFHDERLQLEYSDLRNRILAETPQSSYSCFQEFLANDRIDFFFLGDFNEVEIQNVLESFGFKGRKGDVKVQYCQPYSNILQEGMVRKNVGQSILELGYHYCSKYGDEQHLPMIVMNGLLGGFAHSKLFTNVRENAGLAYTISSELDLFSGFLRMYAGINRENRNQARKMMNNQLLDLKKGYFTEFELNQTKEMIRWSLLLSQDNQSSLIERAYQNALFGKSSADFKSWIAKLEQIDKDAICRVANNVKLQAIYFMEGIE” the entry was “not soluble”; with “PRRGAVAHANSIVQQLVSEGADISHTRNMLRNAMNGDAVAFSRVEQNIFRQHFPNMPMHGISRDSELAIELRGALRRAVHQQAAS”, “soluble”; with “MAHHHHHHMILHGALSQERDRLLSSYLKSPITLSFPPPLPLLALPSPPSFFVYKKNVFFFRLGMGDARSASSKASSPSCVLAATPRDFGRSAEPGDSPRPPIIAVLYRPGQAKRERQPARGGRGGGQRRLVSYFLPALAAHVRHGKQWTTYPLSFLYPYRPSHSLSTPPHTPSIITDPRITRRKLASVLSLFYLQSVTMMASGGDEQLDALVDSILQSSDHLGSIDQITQRLPSPQQQQLSNPAFTSSTQQREHTSSDSHDTGVRAHMHAVSPGGSSSSVGNFVVAVPAAHHASASTSRATATHLDTEDGEKGEEEDDLSALVERILAGPGVRGRPSTSSASSPRFSQVPPPHIGNSGATSTSGLKGATRVKGGSSSLSRTFGAGPASPNARMQAVVRRLTLWYERKEAKRVQAVYEALEREQLDCTFEPRINRLGVEVGGSVVVDEDDRPLHRRHYSADEYPRRSSASSKARGSSGSRAVSHTNTISMSSSSSRVTPHVCEYIPSLQPPSQPITGADAFVERLRRAQDERDTVREAEEAKRLHYYDPTTFRRDLTVPVPFEFVETRPRRLAAAMTAAAGGSPSRGPGDIVGVTRTSIPPFSARAAALAACGDAGATPPRPAEDGFRDVNEDKRLTPENTFLSLAPHIRETLLFDRQMELQLRRATDSVRRVTRGE”, “not soluble”. Regarding “MGSDKIHHHHHHMSDKFGEGRDPYLYPGLDIMRNRLNIRQQQRLEQAAYEMTALRAATIELGPLVRGLPHLRTIHRQLYQDIFDWAGQLREVDIYQGDTPFCHFAYIEKEGNALMQDLEEEGYLVGLEKAKFVERLAHYYCEINVLHPFRVGSGLAQRIFFEQLAIHAGYQLSWQGIEKEAWNQANQSGAMGDLTALQMIFSKVVSEAGESE”, the “soluble on expression in E. coli” value is reported as “not soluble”. With “MTAKQFRHGGENLAVRYALADCELGRCLVAESERGICAILLGDDDATLISELQQMFPAADNAPADLMFQQHVREVIASLNQRDTPLTLPLDIRGTAFQQQVWQALRTIPCGETVSYQQLANAIGKPKAVRAVASACAANKLAIVIPCHRVVRGDGSLSGYRWGVSRKAQLLRREAENEER” the entry was “soluble”; with “MIHRPTAKENAKRFASVIQALHACETACAYCATECGKNGHAEAMGRCVSLCTDCARFCALARDFLERNSEFAELLLEDCAEICQQTMEECVHHAEGHCRKCAEACEQCKKACLEVAGAAPLSSAQQKELLAALLEHHHHHH”, “not soluble”; with “MGSDKIHHHHHHVNAIQVPDAPVVLSTASVYPEKTPAAFEIAAELGYDGIEVMVTADPVSQDIDMLRRLSEYHQIPITAIHAPCLIFTQRVWGRDPWIKLIKSKEMAEALGATTVVVHPAFKWQREYAREFESGILKMRDETDVIFAVENMYQVRMRGKEVVPYAPSWNPLDRDYPNVTLDLSHTAMSQSDAMDMARQLGDRLSHVHLADGVGGQNFDEHLIPGRGNQPCAELLEHLANNDYRGQIVLEVNTRKSDRETRLTELAEALAFTRLHFARSVPPEPRSEQPEREQIVVRSVPAPALRVFSVHSDGTVSTD”, “not soluble”.

Consider “SKELKVLVLCAGSGTSAQLANAINEGANLTEVRVIANSGAYGAHYDIMGVYDLIILAPQVRSYYREMKVDAERLGIQIVATRGMEYIHLTKSPSKALQFVLEHYQ”, for which the “soluble on expression in E. coli” value is “not soluble”.
